Data reported in patent US20200353049A1.
“And” between values parts separate entries of the source, which are not always exact repeats. Equal entries are not always repeated.

What was measured:
[1] = molecular target: IL-22R1a extracellular domain (ECD) (UniProt Q8N6P7); test: binding ELISA on plate-coated IL-22R1a ECD, relative to Reference Standard (100%); T=0
[2] = molecular target: IL-22R1a extracellular domain (ECD) (UniProt Q8N6P7); test: as above; remark: listed apart in the source
[3] = molecular target: IL-22R1a extracellular domain (ECD) (UniProt Q8N6P7); test: binding ELISA on plate-coated IL-22R1a ECD, relative to Reference Standard (100%); stored 5 C, 2 months
[4] = molecular target: IL-22R1a extracellular domain (ECD) (UniProt Q8N6P7); test: binding ELISA on plate-coated IL-22R1a ECD, relative to Reference Standard (100%); stored 5 C, 6 months
[5] = molecular target: IL-22R1a extracellular domain (ECD) (UniProt Q8N6P7); test: binding ELISA on plate-coated IL-22R1a ECD, relative to Reference Standard (100%); stored -20 C, 3 months
[6] = molecular target: IL-22R1a extracellular domain (ECD) (UniProt Q8N6P7); test: binding ELISA on plate-coated IL-22R1a ECD, relative to Reference Standard (100%); stored -20 C, 6 months
[7] = molecular target: IL-22R1a extracellular domain (ECD) (UniProt Q8N6P7); test: binding ELISA on plate-coated IL-22R1a ECD, relative to Reference Standard (100%); stored -20 C, 3 months; remark: listed apart in the source
[8] = molecular target: IL-22R1a extracellular domain (ECD) (UniProt Q8N6P7); test: binding ELISA on plate-coated IL-22R1a ECD, relative to Reference Standard (100%); stored -20 C, 6 months; remark: listed apart in the source
[9] = molecular target: IL-22R1a extracellular domain (ECD) (UniProt Q8N6P7); test: binding ELISA on plate-coated IL-22R1a ECD, relative to Reference Standard (100%); stored -20 C, 12 months
[10] = molecular target: IL-22R1a extracellular domain (ECD) (UniProt Q8N6P7); test: as above; remark: listed apart in the source
[11] = molecular target: IL-22R1a extracellular domain (ECD) (UniProt Q8N6P7); test: binding ELISA on plate-coated IL-22R1a ECD, relative to Reference Standard (100%); stored -20 C, 24 months
[12] = molecular target: IL-22R1a extracellular domain (ECD) (UniProt Q8N6P7); test: binding ELISA on plate-coated IL-22R1a ECD, relative to Reference Standard (100%); stored -20 C, 60 months
[13] = molecular target: IL-22R1a extracellular domain (ECD) (UniProt Q8N6P7); test: potency assay (binding ELISA on plate-coated IL-22R1a ECD), relative to reference standard; 40 C stress, day 0
[14] = molecular target: IL-22R1a extracellular domain (ECD) (UniProt Q8N6P7); test: binding ELISA on plate-coated IL-22R1a ECD, relative to Reference Standard; pH 7.0 formulation stored 1 week at 40 C
[15] = molecular target: IL-22R1a extracellular domain (ECD) (UniProt Q8N6P7); test: potency assay (binding ELISA on plate-coated IL-22R1a ECD), relative to reference standard (100%); stored 25 C, 1 month
[16] = molecular target: IL-22R1a extracellular domain (ECD) (UniProt Q8N6P7); test: potency assay (binding ELISA on plate-coated IL-22R1a ECD), relative to reference standard (100%); stored 5 C, 6 months
[17] = molecular target: IL-22R1a extracellular domain (ECD) (UniProt Q8N6P7); test: potency assay (binding ELISA on plate-coated IL-22R1a ECD), relative to reference standard (100%); stored 5 C, 9 months
[18] = molecular target: IL-22R1a extracellular domain (ECD) (UniProt Q8N6P7); test: potency assay (binding ELISA on plate-coated IL-22R1a ECD), relative to reference standard (100%); stored 5 C, 3 months
[19] = molecular target: IL-22R1a extracellular domain (ECD) (UniProt Q8N6P7); test: potency assay (binding ELISA on plate-coated IL-22R1a ECD), relative to reference standard (100%); stored 5 C, 24 months
[20] = molecular target: IL-22R1a extracellular domain (ECD) (UniProt Q8N6P7); test: potency assay (binding ELISA on plate-coated IL-22R1a ECD), relative to reference standard (100%); stored 5 C, 36 months
[21] = molecular target: IL-22R1a extracellular domain (ECD) (UniProt Q8N6P7); test: potency assay (binding ELISA on plate-coated IL-22R1a ECD), relative to reference standard (100%); stored 5 C, 42 months
[22] = molecular target: IL-22R1a extracellular domain (ECD) (UniProt Q8N6P7); test: potency assay (binding ELISA on plate-coated IL-22R1a ECD), relative to reference standard (100%); stored 25 C, 3 months
[23] = molecular target: IL-22R1a extracellular domain (ECD) (UniProt Q8N6P7); test: potency assay (binding ELISA on plate-coated IL-22R1a ECD), relative to reference standard (100%); stored 5 C, 24 months; remark: listed apart in the source
[24] = molecular target: IL-22R1a extracellular domain (ECD) (UniProt Q8N6P7); test: potency assay (binding ELISA on plate-coated IL-22R1a ECD), relative to reference standard (100%); stored 5 C, 36 months; remark: listed apart in the source
[25] = molecular target: IL-22R1a extracellular domain (ECD) (UniProt Q8N6P7); test: potency assay (binding ELISA on plate-coated IL-22R1a ECD), relative to reference standard (100%); stored 5 C, 12 months (time printed as 180/12)
[26] = molecular target: IL-22R1a extracellular domain (ECD) (UniProt Q8N6P7); test: potency assay (binding ELISA on plate-coated IL-22R1a ECD); change after 2 weeks at 40 C; this end matches Clinical Batch 3 in Table 26 (85 to 57)
[27] = molecular target: IL-22R1a extracellular domain (ECD) (UniProt Q8N6P7); test: binding ELISA on plate-coated IL-22R1a ECD, relative to Reference Standard; 10 mM sodium phosphate, 240 mM sucrose, 0.02% PS20, pH 7.0; control sample

UniProt Q8N6P7, sequence (Q8N6P7 16-228 limits assumed): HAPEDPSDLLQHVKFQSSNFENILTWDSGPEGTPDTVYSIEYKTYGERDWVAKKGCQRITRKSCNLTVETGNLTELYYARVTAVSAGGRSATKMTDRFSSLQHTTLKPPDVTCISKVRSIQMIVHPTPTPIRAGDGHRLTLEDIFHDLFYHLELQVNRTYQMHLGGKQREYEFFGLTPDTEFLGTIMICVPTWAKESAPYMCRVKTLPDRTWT

Potency by Binding Assay (% relative potency) (% relative potency) [1]: 71
Potency by Binding Assay (% relative potency) (% relative potency) [2]: 108
Potency by Binding Assay (% relative potency) (% relative potency) [3]: 75
Potency by Binding Assay (% relative potency) (% relative potency) [4]: 71
Potency by Binding Assay (% relative potency) (% relative potency) [5]: 72
Potency by Binding Assay (% relative potency) (% relative potency) [6]: 73
Potency by Binding Assay (% relative potency) (% relative potency) [7]: 104
Potency by Binding Assay (% relative potency) (% relative potency) [8]: 112
Potency by Binding Assay (% relative potency) (% relative potency) [9]: 69
Potency by Binding Assay (% relative potency) (% relative potency) [10]: 91
Potency by Binding Assay (% relative potency) (% relative potency) [11]: 97
Potency by Binding Assay (% relative potency) (% relative potency) [12]: 99
Potency (% relative potency) (% relative potency) [13]: 104 and 85
Estimated % relative potency (n = 2) (% relative potency) [14]: 81
Potency (% relative potency) (% relative potency) [15]: 68
Potency (% relative potency) (% relative potency) [16]: 64
Potency (% relative potency) (% relative potency) [17]: 63
Potency (% relative potency) (% relative potency) [18]: 104
Potency (% relative potency) (% relative potency) [19]: 66
Potency (% relative potency) (% relative potency) [20]: 67
Potency (% relative potency) (% relative potency) [21]: 59
Potency (% relative potency) (% relative potency) [22]: 95
Potency (% relative potency) (% relative potency) [23]: 83
Potency (% relative potency) (% relative potency) [24]: 99
Potency (% relative potency) (% relative potency) [25]: 86
decrease in % relative potency (% relative potency) [26]: 28
Estimated % relative potency (n = 2) (% relative potency) [27]: 89
Substance: IL-22 Fc fusion protein
